Experimental data from US20250376532A1.

Molecular target: rDR5-IgG4-Fc (UniProt O14763)
Assay: BLI

AMG655
Kd: 0.102 nM
